These results are taken from patent publication US5919901.

Ends that are not written are not given here.

The target of this assay is T1, Rat Y4/PP1 (clone) (rat), Q63447.
T1 chain: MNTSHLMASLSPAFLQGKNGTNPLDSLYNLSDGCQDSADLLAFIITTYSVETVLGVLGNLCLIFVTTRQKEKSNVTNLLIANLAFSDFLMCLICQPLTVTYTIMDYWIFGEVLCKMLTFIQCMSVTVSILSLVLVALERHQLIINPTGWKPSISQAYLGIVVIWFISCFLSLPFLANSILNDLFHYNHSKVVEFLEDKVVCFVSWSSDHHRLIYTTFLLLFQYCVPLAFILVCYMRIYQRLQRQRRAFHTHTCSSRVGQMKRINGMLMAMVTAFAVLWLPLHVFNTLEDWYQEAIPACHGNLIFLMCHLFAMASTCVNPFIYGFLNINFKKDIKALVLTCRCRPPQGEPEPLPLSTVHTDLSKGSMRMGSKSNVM
The experiment in a line: competition with rat [125I]PP on the rat Y4/PP1 clone. The note with it: remark: other sources report otherwise.

For orientation: IC50 means the midpoint of a concentration-inhibition curve. PAEDLARYYSALRHYINLITRQRY (ends and bridges not checked) [p(13-36)NPY, P01304] yielded an IC50 greater than 1000 nM.
